Reference: the supplement of paper PMC10567573

B1: EPB41L3 (parent)
chain: SELGDYDPDECGSDYISEFRFAPN

Variants of: B1
Assay: protein stability index of a GFP-peptide fusion (GPS, HEK-293T) (PSI 1-6); higher = more stable
Details: c terminus: a fixed tail appended
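Note: lentivirally expressed fusions sorted by FACS into six bins by GFP to DsRed ratio, PSI derived from sequencing read proportions per bin multiplied by bin number.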

First: S17K
Second: S17F
The protein stability index of the first is higher: 2.32 for the first, 1.7 for the second.

First: S17L
Second: S17G
The protein stability index of the first is higher: 2.68 for the first, 2.36 for the second.

Compared with S17A, S17E is higher in protein stability index: 2.33 for the first, 3.88 for the second.

Compared with S17Y, S17M is higher in protein stability index: 1.7 for the first, 2.11 for the second.

First: S17I
Second: S17Q
The protein stability index of the first is lower: 1.94 for the first, 2.44 for the second.

Compared with S17P, S17C is higher in protein stability index: 1.52 for the first, 2.52 for the second.

Going from S17V to S17R, the protein stability index rises from 2.2 to 2.34.

Compared with S17D, S17T is lower in protein stability index: 3.94 for the first, 1.61 for the second.

First: S17H
Second: S17W
The protein stability index of the first is higher: 1.88 for the first, 1.76 for the second.

Going from S17N to S13E, the protein stability index rises from 2.57 to 2.59.

First: S13R
Second: S13L
The protein stability index of the first is lower: 1.95 for the first, 1.97 for the second.

Compared with S13C, S13I is higher in protein stability index: 1.84 for the first, 2.37 for the second.

First: S13Y
Second: S13P
The protein stability index of the first is lower: 1.91 for the first, 2.28 for the second.

Compared with S13F, S13V is lower in protein stability index: 2.11 for the first, 1.76 for the second.

Compared with S13M, S13H is higher in protein stability index: 2 for the first, 2.1 for the second.

Going from S13N to S13G, the protein stability index falls from 2.34 to 2.09.

Compared with S13W, S13A is lower in protein stability index: 2.22 for the first, 2.08 for the second.

Going from S13T to S13K, the protein stability index rises from 1.69 to 1.82.

First: S13Q
Second: S13D
The protein stability index of the first is lower: 2.09 for the first, 2.7 for the second.

Going from I16K to I16E, the protein stability index rises from 3.37 to 4.6.

Going from I16D to I16T, the protein stability index falls from 4.99 to 3.8.

Compared with I16M, I16A is higher in protein stability index: 2.24 for the first, 4.33 for the second.

I16Y and I16R are the same in protein stability index: 3.47 for the first, 3.47 for the second.

Going from I16F to I16L, the protein stability index rises from 2.26 to 2.56.

Going from I16P to I16V, the protein stability index falls from 3.7 to 2.76.

Compared with I16C, I16H is higher in protein stability index: 3.41 for the first, 4.14 for the second.

Going from I16N to I16W, the protein stability index falls from 4.52 to 3.24.

Compared with I16Q, I16G is higher in protein stability index: 3.81 for the first, 4.45 for the second.

Going from I16S to C11V, the protein stability index falls from 4.05 to 1.91.

Going from C11S to C11K, the protein stability index falls from 2.51 to 2.26.

First: C11E
Second: C11Q
The protein stability index of the first is higher: 2.7 for the first, 2.49 for the second.

Going from C11T to C11F, the protein stability index falls from 1.94 to 1.77.

Going from C11P to C11N, the protein stability index rises from 1.78 to 2.27.

Compared with C11G, C11Y is lower in protein stability index: 2.26 for the first, 2.1 for the second.

First: C11I
Second: C11A
The protein stability index of the first is higher: 2.2 for the first, 2.02 for the second.

First: C11M
Second: C11H
The protein stability index of the first is higher: 2 for the first, 1.6 for the second.

Compared with C11D, C11W is lower in protein stability index: 2.8 for the first, 1.68 for the second.

Going from C11R to C11L, the protein stability index rises from 2.01 to 2.06.

Compared with Y15W, Y15Q is higher in protein stability index: 1.97 for the first, 3.05 for the second.

Going from Y15F to Y15G, the protein stability index rises from 2.18 to 3.75.

Compared with Y15R, Y15H is higher in protein stability index: 2.74 for the first, 2.87 for the second.

Going from Y15E to Y15N, the protein stability index falls from 4.13 to 4.06.

First: Y15S
Second: Y15P
The protein stability index of the first is higher: 3.43 for the first, 1.84 for the second.

Going from Y15M to Y15I, the protein stability index falls from 2.91 to 2.5.

First: Y15T
Second: Y15V
The protein stability index of the first is higher: 2.7 for the first, 2.52 for the second.

Compared with Y15D, Y15L is lower in protein stability index: 4.23 for the first, 2.35 for the second.

Going from Y15C to Y15K, the protein stability index falls from 2.84 to 2.77.

First: Y15A
Second: G12P
The protein stability index of the first is higher: 2.46 for the first, 2.12 for the second.

First: G12C
Second: G12A
The protein stability index of the first is lower: 1.55 for the first, 2.02 for the second.

Compared with G12T, G12W is lower in protein stability index: 1.93 for the first, 1.83 for the second.

Going from G12V to G12I, the protein stability index rises from 1.95 to 2.16.

Going from G12E to G12Y, the protein stability index rises from 2.11 to 2.32.

First: G12F
Second: G12K
The protein stability index of the first is lower: 1.72 for the first, 1.9 for the second.

Compared with G12L, G12R is lower in protein stability index: 2.15 for the first, 1.77 for the second.

Going from G12D to G12S, the protein stability index falls from 3.19 to 2.15.

Going from G12M to G12N, the protein stability index rises from 1.88 to 2.

Going from G12H to G12Q, the protein stability index falls from 2.22 to 2.04.

Compared with E10H, E10W is higher in protein stability index: 1.5 for the first, 1.91 for the second.

First: E10P
Second: E10F
The protein stability index of the first is higher: 2.04 for the first, 1.55 for the second.

First: E10C
Second: E10M
The protein stability index of the first is higher: 2.38 for the first, 1.75 for the second.

Compared with E10R, E10S is lower in protein stability index: 2.26 for the first, 1.85 for the second.

Going from E10Y to E10D, the protein stability index rises from 1.55 to 1.81.

Going from E10K to E10L, the protein stability index falls from 1.85 to 1.61.

First: E10Q
Second: E10T
The protein stability index of the first is lower: 1.84 for the first, 1.85 for the second.

First: E10V
Second: E10I
The protein stability index of the first is higher: 2.06 for the first, 1.45 for the second.

First: E10G
Second: E10A
The protein stability index of the first is lower: 1.78 for the first, 1.88 for the second.

Going from E10N to D14V, the protein stability index falls from 1.9 to 1.31.

First: D14E
Second: D14I
The protein stability index of the first is lower: 1.5 for the first, 2.32 for the second.

Compared with D14S, D14A is lower in protein stability index: 1.61 for the first, 1.46 for the second.

Going from D14Q to D14P, the protein stability index rises from 1.47 to 1.63.

Going from D14K to D14F, the protein stability index rises from 1.49 to 2.43.

Compared with D14H, D14Y is higher in protein stability index: 1.86 for the first, 2.11 for the second.

Compared with D14L, D14R is higher in protein stability index: 2.41 for the first, 2.51 for the second.

Going from D14C to D14G, the protein stability index falls from 1.89 to 1.27.

First: D14T
Second: D14N
The protein stability index of the first is higher: 2.58 for the first, 1.99 for the second.

First: D14M
Second: D14W
The protein stability index of the first is higher: 2.07 for the first, 1.66 for the second.

First: D9W
Second: D9V
The protein stability index of the first is lower: 1.63 for the first, 1.87 for the second.

Going from D9T to D9Y, the protein stability index rises from 1.47 to 1.99.

Compared with E18M, E18I is higher in protein stability index: 1.96 for the first, 2.41 for the second.

Going from E18N to E18C, the protein stability index rises from 2.15 to 2.2.

Compared with E18L, E18F is lower in protein stability index: 2.45 for the first, 2.17 for the second.

First: E18G
Second: E18D
The protein stability index of the first is higher: 2.16 for the first, 1.83 for the second.

First: E18A
Second: E18K
The protein stability index of the first is lower: 2.1 for the first, 2.5 for the second.

Variant E18H has a protein stability index of 2.37.
